The source of these data is publication PMC7949152, “A resistant mutant of Plasmodium falciparum purine nucleoside phosphorylase uses wild-type neighbors to maintain parasite survival” (The Journal of Biological Chemistry, 2021).

This series concerns OC[C@H]1O[C@@H](n2cnc3c(O)ncnc32)[C@H](O)[C@@H]1O. Briefly: Michaelis-Menten kinetics, xanthine oxidase-coupled assay (Km). It is filed as biochemical, Plasmodium falciparum. To be noted: phosphate catalytic site.

With “Plasmodium falciparum purine nucleoside phosphorylase (PfPNP), native subunits (natPNPfus) (Plasmodium falciparum 3D7)”, the Km – broadly, the substrate concentration at which the rate is half of its maximum – was determined as 5.4 µM.
